Reference: article PMC4589789, “Anti-interleukin-6 therapy through application of a monogenic protein inhibitor via gene delivery” (Scientific Reports, 2015)

Experiments:
murine IL-6 (mouse) [1] = target: murine IL-6 (mouse) (UniProt P08505)
murine IL-6 (mouse) [2] = target: murine IL-6 (mouse) (UniProt P08505); remark: listed apart in the source
[3] = target: the molecule itself; assay: SDS-PAGE under non-reducing and reducing conditions; purified mIL-6-RFP-Fc on 7.5% SDS/PAGE, Coomassie staining and Western blotting; disulfide-linked dimer versus monomer

Sequence of murine IL-6 (mouse) (P08505 25-211): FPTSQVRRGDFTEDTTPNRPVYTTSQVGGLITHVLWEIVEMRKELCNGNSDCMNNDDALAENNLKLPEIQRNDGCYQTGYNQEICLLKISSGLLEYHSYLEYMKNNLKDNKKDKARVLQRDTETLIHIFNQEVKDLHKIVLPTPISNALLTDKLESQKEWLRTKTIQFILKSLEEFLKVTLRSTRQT

- IC50 of inhibition of IL-6 (37 pM)-dependent proliferation of Ba/F3-mgp130/mIL-6Rα cells, serial 2-fold dilutions from 3.9 nM, XTT assay after 60 h (murine IL-6 (mouse) [1]): 3.3e-05 μM
- attenuation of IL-6 (100 ng i.v.)-induced ERK1/2 phosphorylation in mouse kidney after pretreatment with mIL-6-RFP-Fc i.p. for 45 min (4, 12 or 40 μg; value for 40 μg, 70× molar excess) (murine IL-6 (mouse) [2]): 50%
- attenuation of IL-6 (100 ng i.v.)-induced ERK1/2 phosphorylation in mouse liver after pretreatment with mIL-6-RFP-Fc i.p. for 45 min (4, 12 or 40 μg; value for 40 μg, 70× molar excess) (murine IL-6 (mouse) [2]): 63%
- attenuation of IL-6 (100 ng i.v.)-induced STAT3 phosphorylation in mouse kidney after pretreatment with mIL-6-RFP-Fc i.p. for 45 min (4, 12 or 40 μg; value for 40 μg, 70× molar excess) (murine IL-6 (mouse) [2]): 80%
- attenuation of IL-6 (100 ng i.v.)-induced STAT3 phosphorylation in mouse liver after pretreatment with mIL-6-RFP-Fc i.p. for 45 min (4, 12 or 40 μg; value for 40 μg, 70× molar excess) (murine IL-6 (mouse) [2]): 12%
B1: mIL-6-RFP-Fc (murine IL-6 receptor fusion protein with engineered mIgG2a Fc-fragment and 3V5-3HA tag) (Fc fusion)
chain: QLLEPCGYIYPEFPVVQRGSNFTAICVLKEACLQHYYVNASYIVWKTNHAAVPREQVTVINRTTSSVTFTDVVLPSVQLTCNILSFGQIEQNVYGVTMLSGFPPDKPTNLTCIVNEGKNMLCQWDPGRETYLETNYTLKSEWATEKFPDCQSKHGTSCMVSYMPTYYVNIEVWVEAENALGKVSSESINFDPVDKVKPTPPYNLSVTNSEELSSILKLSWVSSGLGGLLDLKSDIQYRTKDASTWIQVPLEDTMSPRTSFTVQDLKPFTEYVFRIRSIKDSGKGYWSDWSEEASGTTYEDLVLGSCRALEVANGTVTSLPGATVTLICPGKEAAGNVTIHWVYSGSQNREWTTTGNTLVLRDVQLSDTGDYLCSLNDHLVGTVPLLVDVPPEEPKLSCFRKNPLVNAICEWRPSSTPSPTTKAVLFAKKINTTNGKSDFQVPCQYSQQLKSFSCQVEILEGDKVYHIVSLCVANSVGSKSSHNEAFHSLKMVQPDPPANLVVSAIPGRPRWLKVSWQHPETWDPSYYLLQFQLRYRPVWSKEFTVLLLPVAQYQCVIHDALRGVKHVVQVRGKEELDLGQWSEWSPEVTGTPWIPRGPTIKPCPPCKCPAPNLEGGPSVFIFPPKIKDVLMISLSPIVTCVVVDVSEDDPDVQISWFVNNVEVHTAQTQTHREDYNSTLRVVSALPIQHQDWMSGKAFACAVNNKDLPAPIERTISKPKGSVRAPQVYVLPPPEEEMTKKQVTLTCMVTDFMPEDIYVEWTNNGKTELNYKNTEPVLDSDGSYFMYSKLRVEKKNWVERNSYSCSVVHEGLHNHHTTKSFSRTPGK
- stoichiometry N [3]: 2
